According to patent US20120251547A1 (Amgen, published 2012):
Where a chain is given by its changes, count along the chain named. One block for each binder: values may come before it.

Legend:
huIL-17RA-FLAG-polyHis [1] = molecular target: T1, huIL-17RA-FLAG-polyHis (human, UniProt Q96F46 33-320); test: binning; IL-17RA held by bead mAb J
T1 construct: also called IL-17RA-FLAG-pHis; wild-type IL-17RA
Experimental: (§1) The method employed the Bio-Plex Workstation and software (BioRad, Hercules, Calif.), as well as reagents from Luminex® Corp. (Austin, Tex.). The manufacturers' basic protocols were followed except where noted below (see www.bio-rad.com and www.luminexcorp.com for details). […] The mouse-anti-human IgG coating was evaluated and the beads quantified by FACS. Each bead code was separately incubated with 10 ul of anti-IL-17RA antibody for 1 hour at room temperature and then washed. The beads were pooled and then dispensed to a 96-well filter plate (Millipore, Billerica, Mass., product #MSBVN1250). […] The PE-tagged monovalent antibody will detect the presence of the second mAb added to the well, but not the first mAb captured by the monovalent mouse-anti-human IgG antibody. Beads were resuspended in 120u1 PBSAT and at least 100 events/bead code were collected on the Bio-Plex workstation as per the manufacturer's recommended protocol.

chimera M [2] = molecular target: T2, chimera M; test: Bio-Plex titration on His-captured chimera;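 also: binding of anti-IL-17RA antibodies (4-fold titration across about 5 logs, 1 h) to His-captured IL-17RA chimeras on multiplexed beads, MFI read as percent of maximal wild-type human IL-17RA signal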
T2 construct: human IL-17RA extracellular domain with mouse Domains C and F; also called Construct M
Experimental: (§2) Twelve bead codes of pentaHis-coated beads (Qiagen, Valencia, Calif.; see wwwl.qiagen.com) were used to capture histidine-tagged protein. The 12 bead codes allowed the multiplexing of 11 chimeric and the wild type human IL-17RA.
(§3) The beads were washed as per the manufacturer's protocol and the 12 bead set was pooled and aliquoted into 2 or 3 columns of a 96-well filter plate (Millipore, Billerica, Mass., product #MSBVN1250) for duplicate or triplicate assay points, respectively. 100 ul anti-IL-17RA antibodies in 4-fold dilutions were added to the wells, incubated for 1 hour at room temperature, and washed. […] Beads were resuspended in 1% BSA, shaken for 3 minutes, and read on the Bio-Plex workstation. Antibody binding to IL-17RA chimeric protein was compared to antibody binding to the human IL-17RA wild-type from the same pool. A titration of antibody over approximately a 5 log scale was performed. Median Fluorescence Intensity (MFI) of chimeric proteins was graphed as a percent of maximum wild-type human IL-17RA signal.

chimera F [3] = molecular target: T3, chimera F; test: Bio-Plex titration on His-captured chimera;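 also: binding of anti-IL-17RA antibodies (4-fold titration across about 5 logs, 1 h) to His-captured IL-17RA chimeras on multiplexed beads, MFI read as percent of maximal wild-type human IL-17RA signal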
T3 construct: human IL-17RA extracellular domain with mouse Domain F; column head 229-319; also called Construct F
Experimental: as §2, §3

chimera K [4] = molecular target: T4, chimera K; test: Bio-Plex titration on His-captured chimera;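 also: binding of anti-IL-17RA antibodies (4-fold titration across about 5 logs, 1 h) to His-captured IL-17RA chimeras on multiplexed beads, MFI read as percent of maximal wild-type human IL-17RA signal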
T4 construct: human IL-17RA extracellular domain with mouse Domains A and F; also called Construct K
Experimental: as §2, §3

huIL-17RA-FLAG-polyHis [5] = molecular target: T1, huIL-17RA-FLAG-polyHis; test: binning; IL-17RA held by bead mAb Q
Experimental: (§4) The method employed the Bio-Plex Workstation and software (BioRad, Hercules, Calif.), as well as reagents from Luminex® Corp. (Austin, Tex.). […] The mouse-anti-human IgG coating was evaluated and the beads quantified by FACS. Each bead code was separately incubated with 10 ul of anti-IL-17RA antibody for 1 hour at room temperature and then washed. The beads were pooled and then dispensed to a 96-well filter plate (Millipore, Billerica, Mass., product #MSBVN1250). […] The PE-tagged monovalent antibody will detect the presence of the second mAb added to the well, but not the first mAb captured by the monovalent mouse-anti-human IgG antibody. Beads were resuspended in 120u1 PBSAT and at least 100 events/bead code were collected on the Bio-Plex workstation as per the manufacturer's recommended protocol.

huIL-17RA-FLAG-polyHis [6] = molecular target: T1, huIL-17RA-FLAG-polyHis; test: binning; IL-17RA held by bead mAb C
huIL-17RA-FLAG-polyHis [7] = molecular target: T1, huIL-17RA-FLAG-polyHis; test: binning; IL-17RA held by bead mAb O
Experimental: as §4

huIL-17RA-FLAG-polyHis [8] = molecular target: T1, huIL-17RA-FLAG-polyHis; test: binning; IL-17RA held by bead mAb N
Experimental: as §1

[9] = molecular target: T5, cynomolgus IL-17RA, on cells (cynomolgus); test: FACS competition: non-clonal supernatant inhibiting biotin-huIL-17A (competitor) binding to cyno IL-17RA+ CHO cells
T5 construct: whole, on cells; also called CHO-cynoIL-17RA; cyno IL-17RA+ CHO cells
Experimental: The anti-IL-17RA antibodies were characterized. Non-clonal hybridoma supernatants were prepared in volumes of 1-2 mls (the Ig concentrations were not determined for these supernatants).

huIL-17RA-FLAG-polyHis [10] = molecular target: T1, huIL-17RA-FLAG-polyHis; test: binning; IL-17RA held by bead mAb G
Experimental: as §4

chimera D = molecular target: T6, chimera D; test: Bio-Plex titration on His-captured chimera;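 also: binding of anti-IL-17RA antibodies (4-fold titration across about 5 logs, 1 h) to His-captured IL-17RA chimeras on multiplexed beads, MFI read as percent of maximal wild-type human IL-17RA signal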
T6 construct: human IL-17RA extracellular domain with mouse Domain D; column head 176-197; also called Construct D
Experimental: as §2, §3
T6 IL-17RA extracellular domain with FLAG-polyHis tag: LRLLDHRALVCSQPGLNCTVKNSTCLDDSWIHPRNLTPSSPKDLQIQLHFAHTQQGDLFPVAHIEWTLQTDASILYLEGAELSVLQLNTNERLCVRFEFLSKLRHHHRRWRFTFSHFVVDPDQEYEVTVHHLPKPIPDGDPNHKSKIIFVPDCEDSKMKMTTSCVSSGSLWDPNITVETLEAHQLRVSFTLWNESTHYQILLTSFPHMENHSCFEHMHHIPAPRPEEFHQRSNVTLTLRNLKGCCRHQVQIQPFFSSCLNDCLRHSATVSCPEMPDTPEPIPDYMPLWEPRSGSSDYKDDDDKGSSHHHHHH

chimera J = molecular target: T7, chimera J; test: Bio-Plex titration on His-captured chimera
T7 construct: human IL-17RA extracellular domain with mouse Domains D and E; column head D+E; also called Construct J
Experimental: as §2, §3

[11] = molecular target: human IL-17RA, full-length, on cells (human, UniProt Q96F46 33-866); test: cell-based or functional assay
huIL-17RA-FLAG-polyHis [12] = molecular target: T1, huIL-17RA-FLAG-polyHis; test: SPR Biacore 3000, mAb captured on anti-human IgG CM4 chip, soluble huIL-17RA-FLAG-polyHis as analyte, 25 C, 1:1 model
Experimental: In vitro binding of IL-17RA mAbs was assayed. The binding affinities of IL-17RA antibodies were measured by surface plasmon resonance using a Biacore 3000® instrument by standard methods known in the art. Antibody candidates were captured on CM4 chips derivatized with goat anti-human IgG (H+ L) antibody (Jackson Immuno Research, Bar Harbor, Me.). A CM4 chip coated with goat anti-human IgG (H+ L) antibody but without captured antibody was used as a reference.
Experiments were conducted at 25° C. using a 50 uL/min flow rate. Data was fit to a 1:1 Model+Local Rmax using BIAeval Software® (v4.1).

muIL-17RA-FLAG-polyHis = molecular target: T8, muIL-17RA-FLAG-polyHis (mouse, UniProt Q60943 32-322); test: Bio-Plex, His-tagged muIL-17RA on pentaHis beads, antibody titration
T8 construct: also called mouse IL-17RA; mu WT
T8 sequence (Q60943 32-322 limits assumed): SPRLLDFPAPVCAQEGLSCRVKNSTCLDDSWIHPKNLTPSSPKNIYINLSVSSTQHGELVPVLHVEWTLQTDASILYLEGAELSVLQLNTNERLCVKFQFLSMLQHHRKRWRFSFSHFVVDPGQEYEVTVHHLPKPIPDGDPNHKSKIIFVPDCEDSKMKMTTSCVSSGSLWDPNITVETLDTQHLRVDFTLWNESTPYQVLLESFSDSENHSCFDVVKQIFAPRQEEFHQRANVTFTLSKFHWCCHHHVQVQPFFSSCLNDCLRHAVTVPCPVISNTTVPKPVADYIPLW

chimera L = molecular target: T9, chimera L; test: Bio-Plex titration on His-captured chimera; cell bold in heavy box (shaded: lost binding)
T9 construct: human IL-17RA extracellular domain with mouse Domains B and F; B+F; also called Construct L
Experimental: as §2, §3

chimera M [13] = molecular target: T2, chimera M; test: as above
Experimental: as §2, §3

chimera K [14] = molecular target: T4, chimera K; test: as above
Experimental: as §2, §3

chimera F [15] = molecular target: T3, chimera F; test: Bio-Plex titration on His-captured chimera; cell not bold in the scan
Experimental: as §2, §3

normalized MFI (huIL-17RA-FLAG-polyHis [1]): 23 | EC50 (chimera M [2]): 0.035 nM | EC50 (chimera F [3]): 0.026 nM | EC50 (chimera K [4]): 0.017 nM | normalized MFI (huIL-17RA-FLAG-polyHis [5]): 100 | normalized MFI (huIL-17RA-FLAG-polyHis [6]): 4770 | normalized MFI (huIL-17RA-FLAG-polyHis [7]): 175 | normalized MFI (huIL-17RA-FLAG-polyHis [8]): 39 | MFI [9]: 6 | normalized MFI (huIL-17RA-FLAG-polyHis [10]): 6280
B1: AMH21/AML21 (antibody, IgG2, V domains shown)
VH: EVQLVESGGGSVQPGGSLRLSCAASGFTFSSYSMNWVRQAPGKGLEWVSIISSRSSIIHYADSVKGRFTISRDNAKNSLYLQMNSLRDEDTAVYYCARPKVGGGMDVWGQGTTVTVSS
VL: DIQMTQSPSSLSASVGDRVTITCRASQGISNYLAWYQQKPGKFPELLIYAASTLQSGVPSRFSGSGSGTDFTLTISSLQPEDVATYYCQKYNRAPFTFGPGTKVDIK
notes: human mAb from IgG2 XenoMouse mice; also called AM-21; antibody Q

normalized MFI (huIL-17RA-FLAG-polyHis [1]): 26 | EC50 (chimera M [2]): 0.04 nM | EC50 (chimera F [3]): 0.029 nM | EC50 (chimera K [4]): 0.022 nM | normalized MFI (huIL-17RA-FLAG-polyHis [5]): 60 | normalized MFI (huIL-17RA-FLAG-polyHis [6]): 2990 | normalized MFI (huIL-17RA-FLAG-polyHis [7]): 140 | normalized MFI (huIL-17RA-FLAG-polyHis [8]): 24 | normalized MFI (huIL-17RA-FLAG-polyHis [10]): 4020
B2: AMH20/AML20 (antibody, IgG2, V domains shown)
VH: B1 VH with S11L, I50F, S53A, I57T, H59Y
VL: B1 VL
notes: human mAb from IgG2 XenoMouse mice; also called AM-20; antibody R

normalized MFI (huIL-17RA-FLAG-polyHis [1]): 2900 | EC50 (chimera D): 0.059 nM | EC50 (chimera J): 0.064 nM | IL-17A/HFF IC50 [11]: 0.33 nM | IL-17A/lung fibroblast IC50 [11]: 0.081 nM | IL-17F/HFF IC50 [11]: 0.073 nM | Ka (huIL-17RA-FLAG-polyHis [12]): 1.01e+08 M⁻¹ | Kd (huIL-17RA-FLAG-polyHis [12]): 9.88 nM | koff (huIL-17RA-FLAG-polyHis [12]): 0.00101 s⁻¹ | kon (huIL-17RA-FLAG-polyHis [12]): 102000 M⁻¹ s⁻¹ | binding result (muIL-17RA-FLAG-polyHis): no binding | normalized MFI (huIL-17RA-FLAG-polyHis [5]): 7850 | normalized MFI (huIL-17RA-FLAG-polyHis [6]): 354 | normalized MFI (huIL-17RA-FLAG-polyHis [7]): 5380 | normalized MFI (huIL-17RA-FLAG-polyHis [8]): 3230 | EC50 cell printed as zero (binding ablated) (chimera L): 0 nM | EC50 (chimera M [13]): 1.55 nM | EC50 (chimera K [14]): 31.3 nM | normalized MFI (huIL-17RA-FLAG-polyHis [10]): 480 | EC50 (chimera F [15]): 3100 nM
B3: AMH18/AML18 (antibody, IgG2, V domains shown)
VH: QVQLVQSGAEVKKPGASVKVSCKASGYSFTDYYMHWVRQAPGQGLEWMGWMHPNSGGTDLAQRFQGRVTMTRDTSISTAYMELSRLRSDDTAVYYCARGGYCSTLSCSFYWYFDLWGRGTLVTVSS
VL: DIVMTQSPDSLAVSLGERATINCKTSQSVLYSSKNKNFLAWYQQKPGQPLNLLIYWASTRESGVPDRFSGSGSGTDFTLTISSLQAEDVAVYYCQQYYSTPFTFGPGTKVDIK
notes: human mAb from IgG2 XenoMouse mice; also called AM-18; antibody G
